Reference: the nanobody polyreactivity screen of Harvey et al. (2022)

experiment: yeast display, Sf9 membrane polyspecificity reagent, FACS + sequencing; frameworks hold sequencing errors
Method in brief: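 Galactose-induced (36–48 hours) yeast carrying a synthetic nanobody display library were exposed to 10% biotinylated, detergent-solubilized Sf9 membrane reagent at 4 °C for 1 hour. FACS followed streptavidin microbead enrichment, using low and high (top ~1%) gates for expression (anti-HA) and reagent binding (streptavidin). Colony PCR, MiSeq 2 × 250 sequencing and CDR-length filtering followed. Labels for polyreactivity reflect the gate of origin.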

Q: Which “polyreactivity (PSR sort gate)” value does the source give for “QVQHVESGGGLVQAGGSLRLSCAASGYTFRYYAMGWYRQAPGKERELVARINRSGGSTYYADSVKGRFTISRDYAKYTVYLQMNSLKPEDTAVYYCNRDYGWHYSYDYWGQGTQVTVSS” here?
A: high polyreactivity

Q: For “QVQHVESGGGLVQAGGSLRLSCAASVLIFYIYAMGWYRQAPGKERELVAAITTGGRTNYADSVKGRFTISRDNAKNTVYLQMKSLKPEDTEVYYCAKDFPIWISHGPDTDNDYGGQGTQVTVSS”, which “polyreactivity (PSR sort gate)” value is on record?
A: low polyreactivity

Q: Which “polyreactivity (PSR sort gate)” value does the source give for “QVQHVESGGGLVQAGGSLRLSCADSGSTLRGNAMGWYRQAPGKEREMVAAISIGSRTNYADSVKGRFTISRDNAKNTDYLQMNSLKPEDTAVYYCAKDISLRVRGPYYFGFDYWGQGTQVTVSS” here?
A: low polyreactivity

Q: Which “polyreactivity (PSR sort gate)” value does the source give for “QVQHVESGGGLVQAGGSLRLSCAPSGSIFRPYAMGWSRQAPGKEMELVAAISFSGAGTYYADSVKGRFTISRDNAKNTVYLQMNSLTPEDTAVYYCNARRYTTYWLLYEYDYWGQGTQVTVSS” here?
A: low polyreactivity

Q: With “QVQHVESGGGLVQAGGSLRLSCAPSGSTFYNNAMGWYRQAPGKERELVAAITRSGGSTYYADSVKGRFTISRDNAKNTVYLQMNSLKPEDTEVYYCNKYGYKGGVGYDYWGQGTQVTVSS” as the sequence, how does the “polyreactivity (PSR sort gate)” value read?
A: high polyreactivity

Q: Which “polyreactivity (PSR sort gate)” value does the source give for “QVQHVESGGGLVQAGGSLRLSCGASGRIFRRYAMGWYSLAAVKEREFVAAISYGGGSTYYADSVKGRFTISRDNAKNTVYLQMNSLKPEDSAVYYCNADVPKSLLLYYPWGYGYWGQGTQVTVSS” here?
A: low polyreactivity

Q: For “QVQHVESGGGLVQAGGSLRLSCSASGSTFGLYAMGWSRQAPGKETELVAVISWRGGSTYYADSVKGRFTISRDNAKNTVYLQMNSLKPEDTAVYYCAAYSRYPYVRYDYWGQGTQVTVSS”, which “polyreactivity (PSR sort gate)” value is on record?
A: low polyreactivity

Q: Which “polyreactivity (PSR sort gate)” value does the source give for “QVQHVESGGGLVQAGGSLRLSSAASGFIFILYAMGWYTQAPGKERELVAAISSCGTRTYYADSVKGRFTISRDNAKNTVYLQMISLKPEDTGVYYCNTAWRDYVARLGGVGYDYWGQGTQVTVSS” here?
A: high polyreactivity

Q: With “QVQHVESGGGLVQAGGSLRLSSAASGFTFNRYAMGWNSQAPGKESELVATITSGGNTYYADSVKGRFTLSRDNAKNTVYLEMNTLKPEDTAVYYCNNRGWYSVYRRDYWGQGTQVTVSS” as the sequence, how does the “polyreactivity (PSR sort gate)” value read?
A: high polyreactivity

Q: Which “polyreactivity (PSR sort gate)” value does the source give for “QVQHVESGGGLVQAGGSLRLTCAASGYIFYYNAMGWYRHAPGKEREMVAAINYSGTSTYYADSVKGRFTISRDNAKNTVYLQMNSLKPEDTAVFYCAKVPHYPLAGRLAILDYWGQGSQVTVSS” here?
A: high polyreactivity

Q: For “QVQHVESGGGLVQAGGSLRLTCAATGFTFATYTMGWYRQAPGKERELFAAISSGGNTNYADSVKGRFTISRDNAKNTVYLQMNSLKPEDTAVYYCARGATLLQYYYWGVYEYDSWGQGTQVTVSS”, which “polyreactivity (PSR sort gate)” value is on record?
A: low polyreactivity

Q: For “QVQHVESGGGLVQAGGTLRLSSAASGSTYRWYAMGSYRQAPGKERELVAAITFRGGRTYYADSVKGRFTISRDNAKNTVYLQMNSLKPEDTAVYYFNAVTYSSPYRFDYWGQGTQVTVSS”, which “polyreactivity (PSR sort gate)” value is on record?
A: low polyreactivity

Q: For “QVQHVESGGGLVQAGRSLRLTSAASGIIFSGYAIGWYRQAPGKERHLVAAISSRCGGTYYADSVKGRFTISRDNAKNTVYFPLNSLKPEDTALYYCAAKRPACIQYSYYYWGQGTQVTVSS”, which “polyreactivity (PSR sort gate)” value is on record?
A: high polyreactivity

Q: Which “polyreactivity (PSR sort gate)” value does the source give for “QVQHVESGGGLVQAGVSLRLSCAASGFTFHRNAMGWSTQAPGKERELLAAITMKGGSSTYYADSVKGRFTISRDNAKNTVYLQMNSLKPEDTAVYYCARDSYSYTFSKNSDPAEYDYWGQGTQVTLSS” here?
A: low polyreactivity

Q: Which “polyreactivity (PSR sort gate)” value does the source give for “QVQHVESGGGLVQAGVSLRLSCAASGSTITYNAMGWYRQAPGKERELVAAITVSDGSTYYADSVKGRFTISRDNAKNTVYLQMNSLKPEDTAVYYCNAYAVYLRYLWYDYWGQGTQVTVSS” here?
A: low polyreactivity

Q: With “QVQHVESGGGLVQARGSLRLSCAASGFTFLAYAMGWYRQAPGKERELVAAINSSDCTTHYADSVKGRFTISRDYAKNTVYLQMNSLKPVDTAVYYCNTDWAYLSDYWGQGTQVTVSS” as the sequence, how does the “polyreactivity (PSR sort gate)” value read?
A: low polyreactivity

Q: For “QVQHVESGGGLVQARGSLRLSCAASGSIFDLNAMGRYRQAPGKERELVAAISSGGGTYYADSVKGRFTISRDNSKNTVYLQMNSLKPVDTAVYYCKRVTRWTYNYWGQGTQVTVSS”, which “polyreactivity (PSR sort gate)” value is on record?
A: high polyreactivity

Q: Which “polyreactivity (PSR sort gate)” value does the source give for “QVQHVESGGGLVQARGSLRLTCAASGLILSSNAMGWYRQAPGKERELVAAITWDGDRTYADSVKGRFTISRDNAKNTVYLQRNSLKPEDTAVYYCAADKQYYWYDWSYDYWGQGTQVTVSS” here?
A: low polyreactivity

Q: For “QVQHVESGGGLVQEGGRLRLSCAASGITFGANTMGWSRQAPGKERELVAAITISGGITHYADSVKGRFTISRDNAKNTVYLQMNSLKPEDTAVYYCAAGAYWRLYPYRLRNVGRMYYWGQGTQVTVSS”, which “polyreactivity (PSR sort gate)” value is on record?
A: low polyreactivity

Q: With “QVQHVESGGGVVQAGGSLRLSCAASVRTFRYYDMGWYRQAPGTERELVAAITSRGGSSYYADSVKGRFTISRDNAKYTVYLQMNSLKPEDTAVYYCNAYPVQIFYLGNRQYNYWGQGTQVTVSS” as the sequence, how does the “polyreactivity (PSR sort gate)” value read?
A: high polyreactivity

Q: Which “polyreactivity (PSR sort gate)” value does the source give for “QVQHVESGGRLVQAGGSLRLSCAASGSIFAAYAMGWYRQAPGKERELVAAISRSGASTYYADSVKGRFTISRDNAKNTVYLQMNSLKPVDTAVYYCAADTYAYPHDNYDYWGQGTQVTVSS” here?
A: low polyreactivity

Q: Which “polyreactivity (PSR sort gate)” value does the source give for “QVQHVESGGRLVQAVGSLRLSCAASGFTFTRHAMGWYRQAPGKERDLVSRISSRGGSTYYADSVKGRFTISRDNAKNTVYLQMNSLKPEDTAVFYCAAPVRKSSYTRYDSWGQGTQVTVSS” here?
A: high polyreactivity

Q: With “QVQHVESGGVIVQAGGSHRLSCAASGHIFFYYTMGWYRQAPGKERELVAGITIGGSTNYADSVKGRFTISRDTAKNTVYLQMNSLKPEDTAVYYCNVVKYVYIYSYWEYYYWGQGTQVTVSS” as the sequence, how does the “polyreactivity (PSR sort gate)” value read?
A: low polyreactivity

Q: With “QVQHVESGRGLVQAGGSLRLSCASSGFTFRRNAMGWYRQAPGKVRELVAVITSSARTNYADSVKGRFTISRDNAKNTVYLQMKSLKPEDTAVYYCNAYGYRQSSSDKYGYWGQCTQVTVSS” as the sequence, how does the “polyreactivity (PSR sort gate)” value read?
A: high polyreactivity

Q: For “QVQHVESRGGLVQAGGSLRLSCAASGFILYLNAMGWYRQAPGKERELVAAITSDGGSTYYADSVKGRFTISRDNAKNTVYLQMNSLKPEDTAVYYCAADNYPDEYDYWGQGTQVTVSS”, which “polyreactivity (PSR sort gate)” value is on record?
A: low polyreactivity

Q: Which “polyreactivity (PSR sort gate)” value does the source give for “QVQHVESRGGLVQAGGSLRLSCAASGIILSPYAMGWYRQAPGKERELVAAISRSGGSTYYADSVKGRFTISRDNAKNTVYLQMNSLKPEDTAVYYCAARYHVYSNYYKYDYCGQGTQVTVSS” here?
A: high polyreactivity

Q: Which “polyreactivity (PSR sort gate)” value does the source give for “QVQHVESRGGLVQAGGSLRLSCAASGLIFALYAMGWYRLAHGKERELVAAIDWSGGSTYYADSVKGRFTISRDNAKNTVYLQMNCLKPEDTAVYYCAADISSSPGNDYWGQGTQVTVSS” here?
A: high polyreactivity

Q: Which “polyreactivity (PSR sort gate)” value does the source give for “QVQHVESVGGLLQAGGSLPLSCASSGSTFTGYAMGRYREAPGIVRELVAAISSSGGRTYYADSVKGRFTISRDNAKNTVYLQMNSLKPEDTAVYYCAVRPRYRPSGYVEYDSWGQSTQVTVSS” here?
A: high polyreactivity

Q: With “QVQHVESVGGLVQAGGSLRLICAASGGTIDTYAIGWYRQAPGKERELVAGIDWSGGSTYYADSVKGRFTISRDNSKNTVYLQMNSLKPEDTAVYYCAADYYYPSQMDYWGQGTQVTVSS” as the sequence, how does the “polyreactivity (PSR sort gate)” value read?
A: low polyreactivity

Q: Which “polyreactivity (PSR sort gate)” value does the source give for “QVQHVESVGGLVQAGGSLRLSCAASGITFNYNAMGWYRQAPGKERELVAAIRGSDSTTYYADSVKGRFTISRDNAKNTVYLQMNSLKPEDTAVYYCAAVGVVPRKKSARVYYWGQGTQVTVSS” here?
A: low polyreactivity
